Assay results as given in patent publication CN116082499A.

Experiments:
[1] = target: DENV抗原 (DENV阳性血清) (dengue virus (DENV), serotype not stated); assay: sandwich ELISA, antibody at 0 ng/ml (blank without antibody), goat anti-mouse IgG, DENV-positive serum, HRP-labelled DENV mAb
[2] = target: DENV抗原 (DENV阳性血清) (dengue virus (DENV), serotype not stated); assay: sandwich ELISA, antibody at 3.125 ng/ml captured on goat anti-mouse IgG, DENV-positive serum, HRP-labelled DENV mAb
[3] = target: DENV-IV抗原(一种NS1蛋白，购自菲鹏) (dengue virus serotype 4 (DENV-IV)) (UniProt P09866)
[4] = target: DENV抗原 (DENV阳性血清) (dengue virus (DENV), serotype not stated); assay: sandwich ELISA, antibody at 1.5625 ng/ml captured on goat anti-mouse IgG, DENV-positive serum, HRP-labelled DENV mAb
[5] = target: DENV抗原 (DENV阳性血清) (dengue virus (DENV), serotype not stated); assay: sandwich ELISA, antibody at 0.78125 ng/ml captured on goat anti-mouse IgG, DENV-positive serum, HRP-labelled DENV mAb
[6] = target: DENV抗原 (DENV阳性血清) (dengue virus (DENV), serotype not stated); assay: sandwich ELISA, antibody at 12.5 ng/ml captured on goat anti-mouse IgG, DENV-positive serum, HRP-labelled DENV mAb
[7] = target: DENV抗原 (DENV阳性血清) (dengue virus (DENV), serotype not stated); assay: sandwich ELISA, antibody at 6.25 ng/ml captured on goat anti-mouse IgG, DENV-positive serum, HRP-labelled DENV mAb

Chain of UniProt P09866 (P09866 775-1126 limits assumed): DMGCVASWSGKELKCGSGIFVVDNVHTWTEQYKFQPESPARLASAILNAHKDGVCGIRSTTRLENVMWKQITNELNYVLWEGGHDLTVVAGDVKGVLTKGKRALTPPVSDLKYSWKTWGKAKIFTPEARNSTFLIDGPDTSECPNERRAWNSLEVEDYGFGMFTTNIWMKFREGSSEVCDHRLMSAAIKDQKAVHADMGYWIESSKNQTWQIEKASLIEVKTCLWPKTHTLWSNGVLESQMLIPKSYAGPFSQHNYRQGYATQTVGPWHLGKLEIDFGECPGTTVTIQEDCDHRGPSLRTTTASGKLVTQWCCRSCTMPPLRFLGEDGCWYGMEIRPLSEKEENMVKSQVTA

OD (450nm, 参考630nm) [1]: 0.045 OD
OD (450nm, 参考630nm) [2]: 0.692 OD
Kd [3]: 811 nM
koff [3]: 0.0019 s⁻¹
kon [3]: 2340 M⁻¹ s⁻¹
OD (450nm, 参考630nm) [4]: 0.48 OD
OD (450nm, 参考630nm) [5]: 0.317 OD
OD (450nm, 参考630nm) [6]: 1.54 OD
OD (450nm, 参考630nm) [7]: 0.996 OD
Substance: 对照抗体 (antibody)
